Test results taken from US20080274112A1, “Nogo Receptor Antagonists” (priority 2003, published 2008).

Tests used:
MAG + sNogoR344-Fc = target: T1, MAG + sNogoR344-Fc (Rattus norvegicus, UniProt Q99M75, A303T/C287S/C43R/E284G/T53A); experiment: mAb/Fab inhibition of MAG binding to sNogoR344-Fc (ELISA)
T1 construct: amino acid residues 26-344 of rat Nogo receptor-1; made in house
T1 sequence (Q99M75 26-344 C43R/T53A/E284G/C287S/A303T): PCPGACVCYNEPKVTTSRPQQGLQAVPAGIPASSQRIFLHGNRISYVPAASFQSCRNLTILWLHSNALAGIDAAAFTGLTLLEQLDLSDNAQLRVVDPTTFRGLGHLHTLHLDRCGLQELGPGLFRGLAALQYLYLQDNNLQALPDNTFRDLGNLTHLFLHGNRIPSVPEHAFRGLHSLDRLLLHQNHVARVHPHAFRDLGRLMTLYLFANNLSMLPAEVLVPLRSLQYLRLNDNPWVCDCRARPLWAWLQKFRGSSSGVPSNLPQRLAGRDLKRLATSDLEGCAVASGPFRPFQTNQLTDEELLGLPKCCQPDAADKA
Description: (§1) 0.5 μg of a soluble Nogo receptor-1 fusion protein comprising amino acid residues 26-344 of rat Nogo receptor-1 and the hinge and Fc region of the rat IgG1 molecule (sNogoR344-Fc) produced as described below was immobilized on 250 μg of protein-A- or wheatgerm agglutinin-conjugated SPA beads (Amersham Pharmacia Biotech) for 2 hours at 25° C. SPA beads coupled with Fc-sNogoR-1, anti-Nogo receptor-1 mAb and 1 μl ^125I-Nogo66 (Amersham, 2000 Ci/mmol, 1 nM) in 50 μl of the HEPES-buffered incubation medium (10 mM HEPES, pH 7.4, 0.1% bovine serum albumin, 0.1% ovalbumin, 2 mM MgCl2, 2 mM CaCl2 and protease inhibitors) was added to each sample well. After 16 hours, radioactivity was measured in quadruplicate samples using a TopCount® (Packard). IC50 values were calculated from a curve-fit analysis (FIG. 3) (PRISM, GraphPad Software, NJ). In some experiments, we also used AP-ligand conjugates (e.g. AP-Nogo66) and detected binding by monitoring alkaline phosphatase activity. We also assayed the ability of the mAbs to block binding of the ligands MAG-Fc and AP-OM-gp to Nogo receptor-1.
(§2) The calculated IC50 for Nogo66 for 7E11 and 1H2 were 400 nM and 60 nM, respectively. The data from ELISAs monitoring mAb-mediated inhibition of binding of the three ligands to Nogo receptor-1 are summarized in Table 6.
(§3) We also performed ELISA binding assays using the Fab-phage 14D5.

[1] = target: T2, rat NgR1 (sNgR310) fragments (Rattus norvegicus, UniProt Q99M75, A303T/C287S/C43R/E284G/T53A); experiment: Western blot of acid/CNBr fragments of sNgR310 probed with 7E11; type: binding
T2 construct: made in house
T2 sequence (Q99M75 27-310 C43R/T53A/E284G/C287S/A303T): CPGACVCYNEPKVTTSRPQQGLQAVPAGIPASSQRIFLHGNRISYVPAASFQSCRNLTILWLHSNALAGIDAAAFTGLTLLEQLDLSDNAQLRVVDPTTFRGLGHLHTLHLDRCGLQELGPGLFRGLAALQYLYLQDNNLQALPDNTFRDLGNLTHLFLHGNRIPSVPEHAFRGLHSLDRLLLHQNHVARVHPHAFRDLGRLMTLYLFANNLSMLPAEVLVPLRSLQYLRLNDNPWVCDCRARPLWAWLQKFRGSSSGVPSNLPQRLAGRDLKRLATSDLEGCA
Description: A recombinant fragment of the rat NgR1 that contains all 8 LRR domains and the N- and C-terminal caps (sNgR310) was treated with either acid or cyanogen bromide (CNBr) and separated the fragments by gel electrophoresis. Untreated sNgR310 migrates with an apparent molecular weight of 42 kDa. Acid treatment of sNgR310 produced two major cleavage products of 15 kDa (aa 27-aa 122) and 30 kDa (aa 123-aa 310). CNBr treatment generated three fragments, a 33/35 kDa doublet (aa 27-aa 229), which may represent fragments with heterogeneous glycosylation, a 10 kDa product (aa 241-aa 310), and an 11-amino-acid fragment (aa 230-aa 240), which is not retained on the gel. […] Both the 15 kDa acid fragment and the 35 kDa CNBr fragment contained the sequence LDLSDNAQLRVVDPTT (SEQ ID NO: 1), consistent with 7E11 binding to a single epitope on NgR1.

mouse NgR3 = target: T3, mouse NgR3 (Mus musculus, UniProt Q8K0S5); experiment: Antibody binding to mouse Nogo receptor-3; conditions: species not stated
T3 sequence (Q8K0S5 25-424): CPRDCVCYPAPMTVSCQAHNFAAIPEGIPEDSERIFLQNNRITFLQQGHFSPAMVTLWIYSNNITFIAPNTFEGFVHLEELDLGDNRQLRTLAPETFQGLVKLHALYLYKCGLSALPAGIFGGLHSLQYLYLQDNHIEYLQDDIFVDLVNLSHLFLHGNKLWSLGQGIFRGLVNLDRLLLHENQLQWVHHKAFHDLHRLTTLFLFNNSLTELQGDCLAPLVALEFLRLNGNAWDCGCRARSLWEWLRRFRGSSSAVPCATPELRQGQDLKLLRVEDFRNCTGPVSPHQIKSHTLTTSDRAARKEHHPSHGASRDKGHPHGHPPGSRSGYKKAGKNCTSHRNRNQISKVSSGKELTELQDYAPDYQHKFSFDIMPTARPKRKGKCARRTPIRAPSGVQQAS

OM-gp + sNogoR344-Fc = target: T4, OM-gp + sNogoR344-Fc (Rattus norvegicus, UniProt Q99M75, A303T/C287S/C43R/E284G/T53A); experiment: mAb/Fab inhibition of OM-gp binding to sNogoR344-Fc (ELISA)
T4 construct: amino acid residues 26-344 of rat Nogo receptor-1; made in house
T4 sequence (Q99M75 26-344 C43R/T53A/E284G/C287S/A303T): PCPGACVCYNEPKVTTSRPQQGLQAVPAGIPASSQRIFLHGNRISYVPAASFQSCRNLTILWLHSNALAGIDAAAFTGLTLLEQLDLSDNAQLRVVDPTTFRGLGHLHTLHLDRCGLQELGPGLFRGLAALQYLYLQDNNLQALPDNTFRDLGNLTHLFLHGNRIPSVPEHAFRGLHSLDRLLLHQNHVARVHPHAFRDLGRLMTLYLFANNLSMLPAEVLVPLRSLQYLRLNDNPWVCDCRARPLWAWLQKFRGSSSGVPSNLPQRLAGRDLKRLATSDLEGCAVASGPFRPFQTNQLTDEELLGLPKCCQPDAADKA
Description: as §1, §2, §3

Nogo66 + sNogoR344-Fc = target: T5, Nogo66 + sNogoR344-Fc (Rattus norvegicus, UniProt Q99M75, A303T/C287S/C43R/E284G/T53A); experiment: mAb/Fab inhibition of Nogo66 binding to sNogoR344-Fc (ELISA)
T5 construct: amino acid residues 26-344 of rat Nogo receptor-1; made in house
T5 sequence (Q99M75 26-344 C43R/T53A/E284G/C287S/A303T): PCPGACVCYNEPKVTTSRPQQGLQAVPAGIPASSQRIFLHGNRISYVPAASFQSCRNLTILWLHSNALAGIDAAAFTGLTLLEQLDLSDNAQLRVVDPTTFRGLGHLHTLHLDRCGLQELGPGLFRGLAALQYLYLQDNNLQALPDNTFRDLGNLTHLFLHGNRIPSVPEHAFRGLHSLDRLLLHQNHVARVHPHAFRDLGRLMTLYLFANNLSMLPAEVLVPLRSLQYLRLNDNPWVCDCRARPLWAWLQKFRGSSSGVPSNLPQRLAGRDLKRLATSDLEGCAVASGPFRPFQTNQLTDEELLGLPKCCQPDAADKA
Description: as §1, §2, §3

mouse NgR1 = target: T6, mouse NgR1 (Mus musculus, UniProt Q99PI8); experiment: Antibody binding to mouse Nogo receptor-1
T6 sequence (Q99PI8 27-447): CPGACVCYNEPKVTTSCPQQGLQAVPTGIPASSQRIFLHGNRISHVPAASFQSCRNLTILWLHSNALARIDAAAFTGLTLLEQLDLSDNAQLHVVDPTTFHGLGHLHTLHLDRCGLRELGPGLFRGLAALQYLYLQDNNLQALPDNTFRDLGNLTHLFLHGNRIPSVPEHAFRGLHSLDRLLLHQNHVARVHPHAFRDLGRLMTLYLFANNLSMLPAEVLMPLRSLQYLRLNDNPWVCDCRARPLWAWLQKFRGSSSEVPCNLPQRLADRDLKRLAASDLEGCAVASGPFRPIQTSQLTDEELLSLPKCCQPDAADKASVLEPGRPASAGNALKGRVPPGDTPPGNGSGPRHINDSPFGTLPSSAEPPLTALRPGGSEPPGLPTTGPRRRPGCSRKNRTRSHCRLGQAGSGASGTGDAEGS

- inhibition of binding of MAG to sNogoR344-Fc (MAG + sNogoR344-Fc): inhibited binding
- percent displacement, MAG + sNogoR344-Fc (MAG + sNogoR344-Fc; 30 nM antibody): 30 nM (60%)
- EC50 (MAG + sNogoR344-Fc; curve-fit analysis): 500 nM
- 7E11 binding to intact rat NgR1 (aa 27-aa 310) [1]: bound
- binding to NgR3 (mouse NgR3): does not bind well
- inhibition of binding of OM-gp to sNogoR344-Fc (OM-gp + sNogoR344-Fc): inhibited binding
- EC50 (OM-gp + sNogoR344-Fc; curve-fit analysis): 150 nM
- inhibition of binding of Nogo66 to sNogoR344-Fc (Nogo66 + sNogoR344-Fc): inhibited binding
- EC50 (Nogo66 + sNogoR344-Fc; curve-fit analysis): 1700 nM
- binding to mouse NgR1 (mouse NgR1): poorly
B1: 7E11: murine monoclonal anti-Nogo receptor-1 antibody, IgG1 kappa, ATCC PTA-4587; immunogen rat Nogo receptor-1 residues 110-125 (antibody, V domains shown)
VH: VQLQESGAELVMPGASVKMSCKASGYTFTDYWMHWVKQRPGQGLEWIGAIDPSDSYSSYNQNFKGKATLTVDGSSSTAYMQLSSLTSEDSAVYYCARRITEAGAWFAYWGQGTTVT
VL: DVVMTQTPLSLPVSLGDQASISCRSSQSLVHSNGNTYLHWYLQKPGQSPKLLIYKVSNRFSGVPDRFSGSGSGTDFTLKISRVDAEDLGVYFCSQSTHVPFTFGGGTKLEIKRADAAPTVSISHH
